Test results from patent publication US20240132624A1 (Ablynx, published 2024).

Legend:
human FcRn/b2M [1] = biological target: T1, human FcRn/b2M (human, UniProt P61769 21-119, biotinylated); assay: SPR pH 6.0;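 note: surface plasmon resonance kinetics at 25 °C, diluted periplasmic extracts injected over immobilized ligand surfaces, 120 s association then 600–3600 s dissociation, running buffer containing 150 mM NaCl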
T1 construct: bought recombinant biotinylated protein (ACRO FCM-H82W4 or Immunitrack ITF01); also called hFcRn; hFcRn/hb2M
Method: (§1) All kinetic measurements have been performed on ProteOn XPR36 (BioRad Laboratories, Inc.), MASS-2 (Sierra sensors, Gmbh) or SPR-32 (Bruker Corporation). […] The phytip purified periplasmic extracts were diluted 1:10 in running buffer (CPA+150 mM NaCl+0.005% Tw20 at pH 5.5, pH 6.0 or pH 7.4) and injected over the ligand surfaces (association: 120 s at 45 μL/min; dissociation: 600s-3600 s at 45 μL/min). Experiments were carried out at 25° C.

cyno FcRn/b2M [2] = biological target: T2, cyno FcRn/b2M (cyno, UniProt Q8SPV9 24-297; Q8SPW0 21-119, biotinylated); assay: SPR pH 6.0;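 note: surface plasmon resonance kinetics at 25 °C, diluted periplasmic extracts injected over immobilized ligand surfaces, 120 s association then 600–3600 s dissociation, running buffer containing 150 mM NaCl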
T2 construct: bought recombinant biotinylated protein (Immunitrack ITF05 or ACRO FCM-C82W5); also called cFcRn; cFcRn/cb2M
T2 sequence (Q8SPV9 24-297 limits assumed, chain 1 of 2): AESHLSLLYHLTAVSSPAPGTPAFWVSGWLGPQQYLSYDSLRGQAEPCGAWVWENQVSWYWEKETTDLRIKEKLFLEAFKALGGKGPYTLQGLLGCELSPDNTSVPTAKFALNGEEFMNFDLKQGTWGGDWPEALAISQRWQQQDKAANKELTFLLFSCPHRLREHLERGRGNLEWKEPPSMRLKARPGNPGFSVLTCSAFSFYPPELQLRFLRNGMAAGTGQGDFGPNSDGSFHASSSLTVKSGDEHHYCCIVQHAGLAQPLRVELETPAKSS
T2 sequence (Q8SPW0 21-119 limits assumed, chain 2 of 2): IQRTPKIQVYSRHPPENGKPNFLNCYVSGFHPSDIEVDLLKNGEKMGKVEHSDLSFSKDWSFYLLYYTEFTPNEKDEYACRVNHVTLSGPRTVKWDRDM
Method: as §1

human FcRn/b2M [3] = biological target: T1, human FcRn/b2M; assay: SPR pH 7.4;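 note: surface plasmon resonance kinetics, periplasmic extracts diluted 1:10 flowed over immobilized target at 25 °C, 120 s association then 600–3600 s dissociation, buffer with 150 mM NaCl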
Method: as §1

cyno FcRn/b2M [4] = biological target: T2, cyno FcRn/b2M; assay: SPR pH 7.4;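 note: surface plasmon resonance kinetics, periplasmic extracts diluted 1:10 flowed over immobilized target at 25 °C, 120 s association then 600–3600 s dissociation, buffer with 150 mM NaCl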
Method: as §1

human FcRn/b2M [5] = biological target: T1, human FcRn/b2M; assay: SPR off-rate; pH 7.4 vs pH 6.0;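 note: surface plasmon resonance with diluted periplasmic extracts flowed over ligand surfaces, 120 s association and 600–3600 s dissociation at 25 °C, running buffer containing 150 mM NaCl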
Method: as §1

cyno FcRn/b2M [6] = biological target: T2, cyno FcRn/b2M; assay: SPR off-rate; pH 7.4 vs pH 6.0;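 note: surface plasmon resonance with diluted periplasmic extracts flowed over ligand surfaces, 120 s association and 600–3600 s dissociation at 25 °C, running buffer containing 150 mM NaCl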
Method: as §1

Binder | koff (human FcRn/b2M [1]) [s⁻¹] | koff (cyno FcRn/b2M [2]) [s⁻¹] | koff (human FcRn/b2M [3]) [s⁻¹] | koff (cyno FcRn/b2M [4]) [s⁻¹] | kd ratio pH 7.4/6.0 (human FcRn/b2M [5]) | kd ratio pH 7.4/6.0 (cyno FcRn/b2M [6])
T0263018B11 D58Y (VHH, name in Kabat numbering, FLAG3-His6 tagged) VHH: EVQLVESGGGVVQPGGSLRLSCAASGFTFSSYAMYWVRQAPGKGLEWVSAISSGGGSTYYADSVKGRFTISRDNSKNTLYLQMNSLRPEDTALYYCAADTLYTSLTWYSYWGQGTLVTVSS | 0.01 | 0.002 | 0.089 | 0.025 | 9 | 12
T0263018B11 F29S (VHH, name in Kabat numbering, FLAG3-His6 tagged) VHH: EVQLVESGGGVVQPGGSLRLSCAASGFTSSSYAMYWVRQAPGKGLEWVSAISSGGGSTDYADSVKGRFTISRDNSKNTLYLQMNSLRPEDTALYYCAADTLYTSLTWYSYWGQGTLVTVSS | 0.0016 | 0.0013 | 0.066 | 0.059 | 41 | 45
T0263018B11 G54E (VHH, name in Kabat numbering, FLAG3-His6 tagged) VHH: EVQLVESGGGVVQPGGSLRLSCAASGFTFSSYAMYWVRQAPGKGLEWVSAISSGEGSTDYADSVKGRFTISRDNSKNTLYLQMNSLRPEDTALYYCAADTLYTSLTWYSYWGQGTLVTVSS | 0.0016 | 0.0016 | 0.046 | 0.062 | 29 | 39
T0263018B11 F29D (VHH, name in Kabat numbering, FLAG3-His6 tagged) VHH: EVQLVESGGGVVQPGGSLRLSCAASGFTDSSYAMYWVRQAPGKGLEWVSAISSGGGSTDYADSVKGRFTISRDNSKNTLYLQMNSLRPEDTALYYCAADTLYTSLTWYSYWGQGTLVTVSS | 0.0036 | 0.0028 | 0.14 | 0.15 | 39 | 54
T0263018B11 G26N (VHH, name in Kabat numbering, FLAG3-His6 tagged) VHH: EVQLVESGGGVVQPGGSLRLSCAASNFTFSSYAMYWVRQAPGKGLEWVSAISSGGGSTDYADSVKGRFTISRDNSKNTLYLQMNSLRPEDTALYYCAADTLYTSLTWYSYWGQGTLVTVSS | 0.00081 | 0.00037 | 0.042 | 0.032 | 53 | 86
T0263018B11 G26M (VHH, name in Kabat numbering, FLAG3-His6 tagged) VHH: EVQLVESGGGVVQPGGSLRLSCAASMFTFSSYAMYWVRQAPGKGLEWVSAISSGGGSTDYADSVKGRFTISRDNSKNTLYLQMNSLRPEDTALYYCAADTLYTSLTWYSYWGQGTLVTVSS | 0.00063 | 7.1e-05 | 0.033 | 0.025 | 52 | 349
T0263018B11 F27L (VHH, name in Kabat numbering, FLAG3-His6 tagged) VHH: EVQLVESGGGVVQPGGSLRLSCAASGLTFSSYAMYWVRQAPGKGLEWVSAISSGGGSTDYADSVKGRFTISRDNSKNTLYLQMNSLRPEDTALYYCAADTLYTSLTWYSYWGQGTLVTVSS | 0.0013 | 0.001 | 0.05 | 0.048 | 38 | 48
T0263018B11 G26E (VHH, name in Kabat numbering, FLAG3-His6 tagged) VHH: EVQLVESGGGVVQPGGSLRLSCAASEFTFSSYAMYWVRQAPGKGLEWVSAISSGGGSTDYADSVKGRFTISRDNSKNTLYLQMNSLRPEDTALYYCAADTLYTSLTWYSYWGQGTLVTVSS | 0.00095 | 0.00081 | 0.042 | 0.05 | 44 | 62
T0263018B11 G26S (VHH, name in Kabat numbering, FLAG3-His6 tagged) VHH: EVQLVESGGGVVQPGGSLRLSCAASSFTFSSYAMYWVRQAPGKGLEWVSAISSGGGSTDYADSVKGRFTISRDNSKNTLYLQMNSLRPEDTALYYCAADTLYTSLTWYSYWGQGTLVTVSS | 0.00091 | 0.00079 | 0.047 | 0.053 | 52 | 67
T0263018B11 F29H (VHH, name in Kabat numbering, FLAG3-His6 tagged) VHH: EVQLVESGGGVVQPGGSLRLSCAASGFTHSSYAMYWVRQAPGKGLEWVSAISSGGGSTDYADSVKGRFTISRDNSKNTLYLQMNSLRPEDTALYYCAADTLYTSLTWYSYWGQGTLVTVSS | 0.0039 | 0.0031 | 0.14 | 0.13 | 36 | 42
T0263018B11 F29V (VHH, name in Kabat numbering, FLAG3-His6 tagged) VHH: EVQLVESGGGVVQPGGSLRLSCAASGFTVSSYAMYWVRQAPGKGLEWVSAISSGGGSTDYADSVKGRFTISRDNSKNTLYLQMNSLRPEDTALYYCAADTLYTSLTWYSYWGQGTLVTVSS | 0.0021 | 0.0016 | 0.089 | 0.086 | 42 | 54
T0263018B11 G26D (VHH, name in Kabat numbering, FLAG3-His6 tagged) VHH: EVQLVESGGGVVQPGGSLRLSCAASDFTFSSYAMYWVRQAPGKGLEWVSAISSGGGSTDYADSVKGRFTISRDNSKNTLYLQMNSLRPEDTALYYCAADTLYTSLTWYSYWGQGTLVTVSS | 0.0012 | 0.00095 | 0.063 | 0.058 | 53 | 61

Results, then the binder that gave them:

koff (human FcRn/b2M [1]) [s⁻¹] | koff (cyno FcRn/b2M [2]) [s⁻¹] | koff (human FcRn/b2M [3]) [s⁻¹] | koff (cyno FcRn/b2M [4]) [s⁻¹] | kd ratio pH 7.4/6.0 (human FcRn/b2M [5]) | kd ratio pH 7.4/6.0 (cyno FcRn/b2M [6]) | Binder
0.0012 | 0.00042 | 0.054 | 0.039 | 45 | 93 | T0263018B11 F27Y (VHH, name in Kabat numbering, FLAG3-His6 tagged) VHH: EVQLVESGGGVVQPGGSLRLSCAASGYTFSSYAMYWVRQAPGKGLEWVSAISSGGGSTDYADSVKGRFTISRDNSKNTLYLQMNSLRPEDTALYYCAADTLYTSLTWYSYWGQGTLVTVSS
0.00065 | 0.00055 | 0.027 | 0.028 | 42 | 51 | T0263018B11 G26Y (VHH, name in Kabat numbering, FLAG3-His6 tagged) VHH: EVQLVESGGGVVQPGGSLRLSCAASYFTFSSYAMYWVRQAPGKGLEWVSAISSGGGSTDYADSVKGRFTISRDNSKNTLYLQMNSLRPEDTALYYCAADTLYTSLTWYSYWGQGTLVTVSS
0.0033 | 0.0025 | 0.15 | 0.14 | 45 | 56 | T0263018B11 F29G (VHH, name in Kabat numbering, FLAG3-His6 tagged) VHH: EVQLVESGGGVVQPGGSLRLSCAASGFTGSSYAMYWVRQAPGKGLEWVSAISSGGGSTDYADSVKGRFTISRDNSKNTLYLQMNSLRPEDTALYYCAADTLYTSLTWYSYWGQGTLVTVSS
0.00055 | 0.00016 | 0.034 | 0.026 | 62 | 159 | T0263018B11 G26H (VHH, name in Kabat numbering, FLAG3-His6 tagged) VHH: EVQLVESGGGVVQPGGSLRLSCAASHFTFSSYAMYWVRQAPGKGLEWVSAISSGGGSTDYADSVKGRFTISRDNSKNTLYLQMNSLRPEDTALYYCAADTLYTSLTWYSYWGQGTLVTVSS
0.00065 | 1.3e-05 | 0.034 | 0.026 | 53 | 2010 | T0263018B11 G26Q (VHH, name in Kabat numbering, FLAG3-His6 tagged) VHH: EVQLVESGGGVVQPGGSLRLSCAASQFTFSSYAMYWVRQAPGKGLEWVSAISSGGGSTDYADSVKGRFTISRDNSKNTLYLQMNSLRPEDTALYYCAADTLYTSLTWYSYWGQGTLVTVSS
